Data reported in the DeepSol protein solubility set.

Test: soluble on expression in E. coli; label from the status in PepcDB or PDB records

Q: Which “soluble on expression in E. coli” value does the source give for “MSQSTSAGGSQAVAQNPGAKLGFSMRSASIASDSVPCESGLCEAPPGVLSGAGTVFCESTYKVKIDNETVWQVPTRLKFVKKVGSGAYGCVASFEDTSASASEQGTEDDPSRREQSGETRTSQTGSAEGDSGTNKKVAVKKIGDLFRDLIDAKRIYREIKILKELKHENIINLVEILDPLTPDFEDIYLVSDLMDTDLHRVIYSRQPLTPEHHQYFLYQLLLGLSFLHQADIIHRDLKPSNILVNLNCDIKICDFGLARGLNMNPAPPPNLLPPATHRAGPAAAQDVVCTYTPPDNLSGAGKWGDQKLAAAAGAGSIAATRLVRLAHQQGSSLIGAQHQVPAKTDDASDDMELTDYVVTRWYRPPEILISPFCYSKPVDLWSVGCIFAELLGRRALFAGKDHFDQLRRIVRVLGRPSTAEINKVANEGRGRHFNNPSKGTSNTKRKRSEAARRFIESLPNSDPYKLEDLFPDASKAALDLLSNLLTFDPAKRITVQEALRHEYFEGLHSVEDEPTVTTPVNWSFDNFVPTKR” here?
A: soluble

Q: Which “soluble on expression in E. coli” value does the source give for “MSLKTSRLPIAIQQAVMRRLREKLAQANLKLGRNYPEPKLSYTQRGTSAGTAWLESYEIRLNPVLLLENSEAFIEEVVPHELAHLLVWKHFGRVAPHGKEWKWMMESVLGVPARRTHQFELQSVRRNTFPYRCKCQEHQLTVRRHNRVVRGEAVYRCVHCGEQLVAKEGHHHHHH” here?
A: not soluble

Q: Which “soluble on expression in E. coli” value does the source give for “MSDVIFLRQYDDIDIVSSPSQNNIIFGHEAARHFLAQILKEERLPHAILFEGDYGIGKATLAFHLAWNILSSQKDGFKQPEHNSVIWRQITQGSHPGLLHISRRFDVKTQKFKTGILFDDIRDIIHFLNRTSKDSGWRIVIIDPADDMNRNAANAILKTLEEPPAKTLFIIITHFSGKLLPTIRSRCQQISLRPLHNDEMKKIIIHMFSNQNVIDEENIGMIIQKSNGNPRKAALLIHGGFEIIKTIDTLLGQSVCNPTIVHNLAQTLSSLSSVIQFQQFCDEILDKIQKKAIMLAERGNLALSKKCAQAWQEIHQEIGEIQSFNLDKKQFIINLLFRVHKIICESELFP” here?
A: not soluble

Q: For “TAQFSWDTQLNFSQNKSKIIELLPGKPGMQYALGGSDALQVYAVAGGAYGEIWGTKYQRVEEGEFKGQLLLNESGLPQATSDKHKIGEQQPDFLLGWTNTFNYKNFTLSFLIDGRFGGDIFSFTNMNLQRSGIAECTAPGGKREDIVVAGVIKDGNGYKVNDQSVSLERYYKALATGRAGISEAYIYDATNIRLRNIALSYRFPSSMLKKTPFQQVKLGFTVNNVWMISSHLDGIDPESVYATSTNATGLENSSAPTSRSYLFNVTLGF”, which “soluble on expression in E. coli” value is on record?
A: not soluble

Q: For “MSLNDEMKGKSGKVKVMYVRSDDDSDKRTHNPRTGKGGGRPGKSRADGGRRPARDDKQSQPRDRKWEDSPWRTVSRAPGDETPEKADHGGISGKSFIDPEVLRRQRAEETRVYGENACQALFQSRPEAIVRAWFIQSVTPRFKEALRWMAANRKAYHVVDEAELTKASGTEHHGGVCFLIKKRNGTTVQQWVSQAGAQDCVLALENESNPHNLGGMMRSCAHFGVKGVVVQDAALLESGAAIRTAEGGAEHVQPITGDNIVNVLDDFRQAGYTVVTTSSEQGKPLFKTSLPAKMVLVLGQEYEGLPDAARDPNDLRVKIDGTGNVAGLNISVATGVLLGEWWRQNKAEGHHHHHH”, which “soluble on expression in E. coli” value is on record?
A: soluble

Q: For “AFINAHTHFEFSNNKASFDYGSFSGWLGSVLNNGGAILENCQGAIQNAISTQLKSGVGSVGAISNHLIEVNLLKESPLNAVVFLEFLGSSYSLEKLKAFEAKFKELKDLEDKKLKAALAVHAPYSVQKDMALSVIQLAKDSQSLLSTHFLESLEELEWVENSKGWFENFYQHFLKESHFKSLYKGANDYIDMFKDTHTLFVHNQFASLEALKRIKSQVKNAFLITCPFSNRLLSGQALDLERTKEAGLSVSVATDGLSSNISLSLLDELRAFLLTHNMPLLELAKIALLGATRHGAKALALNNG”, which “soluble on expression in E. coli” value is on record?
A: not soluble

Q: Which “soluble on expression in E. coli” value does the source give for “SLLLVIDVGNTNTVLGVYHDGKLEYHWRIETSRHKTEDEFGMILRSLFDHSGLMFEQIDGIIISSVVPPIMFALERMCTKYFHIEPQIVGPGMKTGLNIKYDNPKEVGADRIVNAVAAIHLYGNPLIVVDFGTATTYCYIDENKQYMGGAIAPGITISTEALYSRAAKLPRIEITRPDNIIGKNTVSAMQSGILFGYVGQVEGIVKRMKWQAKQKQKVIATGGLAPLIANESDCIDIVDPFLTLKGLELIYERNRVGSV” here?
A: soluble
